# According to US9403896B2, “Serpin-finger fusion polypeptide” (Hoffmann-La Roche Inc., priority 2010, dated 2016):
# Like-named read-outs stand apart in the source and are kept apart here.
# Legend:
# HIV HR1 polypeptide = target: T1, HIV HR1 polypeptide (Human immunodeficiency virus type 1 group M subtype B, UniProt P04578); assay: biochemical; assay type: binding; settings: for kon: read-out: ka
# T1 construct: made in house; host or cells: chemical peptide synthesis (no expression host)
# Procedure: All surface plasmon resonance measurements were performed on a BIAcore 3000 instrument (GE Healthcare Biosciences AB, Sweden) at 25° C. Chemically prepared HIV HR1 peptide (heptad repeat 1; Biotin-[…] Q-NH2 (SEQ ID NO: 87)) was immobilized on a CM5 biosensor chip according to the manufacturer instructions (GE Healthcare Biosciences AB, Sweden). The fusion polypeptide was diluted to a concentration of 25 nM and injected over 5 minutes at a flow rate of 50 μl/min. Thereafter the protein complex obtained from different combined fractions was diluted into the same buffer to concentrations of 250 nM and 80 nM and injected over 5 minutes at a flow rate of 50 μl/min. Afterwards the sensor chip was regenerated for 1 minute with PBS, pH 8.0, 0.005% (v/v) Tween 20. Data analysis was performed with the BIAevaluation software (BIAcore, Sweden) (see FIG. 4).
# [1] = tested on: HIV cell-cell-membrane fusion; assay: cell-cell-fusion-assay (CCF-assay), antiviral activity; assay type: cell-based
# Description: The amino acid sequence of fusion polypeptide FP-1 is SEQ ID NO: 76, the amino acid sequence of fusion polypeptide FP-2 is SEQ ID NO: 77, and the amino acid sequence of fusion polypeptide FP-3 is SEQ ID NO: 78. In the fusion polypeptides FP-1 to FP-3 the same serpin-finger polypeptide is conjugated to different HIV fusion inhibitor polypeptides. The fusion polypeptide FP-3 is expressed better in E. coli than FP-2 and in turn FP-2 is expressed better than the fusion polypeptide FP-1. The same sequence of the fusion polypeptides is obtained for the binding to target HIV HR-1 polypeptide (FP-3>FP-2>FP-1) in a BIAcore assay. The same sequence has also been found for the anti-viral activity in a cell-cell-fusion-assay (CCF-assay).
# [2] = BIAcore 3000, 25° C., HR1 peptide immobilized on CM5 chip
# T1 sequence (P04578 540-590): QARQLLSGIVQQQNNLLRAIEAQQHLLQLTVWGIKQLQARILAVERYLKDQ
Molecule,KA (HIV HR1 polypeptide) [M⁻¹],Kd (HIV HR1 polypeptide) [nM],ka (HIV HR1 polypeptide) [M⁻¹ s⁻¹],kd (HIV HR1 polypeptide) [s⁻¹],IC50 [1] [nM],kon (HIV HR1 polypeptide) [M⁻¹ s⁻¹],kd (HIV HR1 polypeptide; [2]) [s⁻¹],kon (HIV HR1 polypeptide; [2]) [M⁻¹ s⁻¹]
"FP-2: SEQ ID NO: 77=GR+SEQ ID NO: 82+SEQ ID NO: 75+SEQ ID NO: 13; serpin-finger, linker, T-651 (GRGTEAAGAMFLEAIPMSTTWMEWDKEINNYTSLIHSLIEESQNQQEKNEQELL)",1.08e+10,0.0924,1.29e+06,0.000119,330,–,–,–
"CC[C@H](C)[C@H](NC(=O)[C@H](C)NC(=O)[C@H](CCCNC(=N)N)NC(=O)[C@H](CC(=O)O)NC(=O)[C@H](Cc1c[nH]c2ccccc12)NC(=O)[C@H](C)NC(=O)[C@H](CCC(=O)O)NC(=O)[C@H](Cc1c[nH]c2ccccc12)NC(=O)[C@@H](NC(=O)[C@@H](N)[C@@H](C)O)[C@@H](C)O)C(=O)N[C@@H](C)C(=O)N[C@@H](CCC(=O)O)C(=O)N[C@@H](Cc1ccc(O)cc1)C(=O)N[C@@H](C)C(=O)N[C@@H](C)C(=O)N[C@@H](CCCNC(=N)N)C(=O)N[C@H](C(=O)N[C@@H](CCC(=O)O)C(=O)N[C@@H](C)C(=O)N[C@@H](CC(C)C)C(=O)N[C@H](C(=O)N[C@@H](CCCNC(=N)N)C(=O)N[C@@H](C)C(=O)N[C@@H](C)C(=O)N[C@@H](CCC(N)=O)C(=O)N[C@@H](CCC(=O)O)C(=O)N[C@@H](CCC(N)=O)C(=O)N[C@@H](CCC(N)=O)C(=O)N[C@@H](CCC(=O)O)C(=O)N[C@@H](CCCCN)C(=O)N[C@@H](CC(N)=O)C(=O)N[C@@H](CCC(=O)O)C(=O)N[C@@H](C)C(=O)N[C@@H](C)C(=O)N[C@@H](CC(C)C)C(=O)N[C@@H](CCCNC(=N)N)C(=O)N[C@@H](CCC(=O)O)C(=O)N[C@@H](CC(C)C)C(=O)O)[C@@H](C)CC)[C@@H](C)CC [T-2635, reference compound]",–,–,–,–,–,1.11e+06,–,–
"CC[C@H](C)[C@H](NC(=O)[C@H](CCC(N)=O)NC(=O)[C@H](C)NC(=O)[C@H](CCC(N)=O)NC(=O)[C@H](CCC(=O)O)NC(=O)[C@H](CC(C)C)NC(=O)[C@H](CC(C)C)NC(=O)[C@H](C)NC(=O)[C@@H](NC(=O)[C@@H](NC(=O)[C@H](CCCCN)NC(=O)[C@H](CCC(N)=O)NC(=O)[C@H](CCC(=O)O)NC(=O)[C@H](Cc1c[nH]c2ccccc12)NC(=O)[C@H](CCC(=O)O)NC(=O)[C@H](CCC(N)=O)NC(=O)[C@H](Cc1c[nH]c2ccccc12)NC(C)=O)[C@@H](C)CC)[C@@H](C)O)C(=O)N[C@@H](CCC(N)=O)C(=O)N[C@@H](CCC(N)=O)C(=O)N[C@@H](CCC(=O)O)C(=O)N[C@@H](CCCCN)C(=O)N[C@@H](CC(N)=O)C(=O)N[C@@H](CCC(=O)O)C(=O)N[C@@H](Cc1ccc(O)cc1)C(=O)N[C@@H](CCC(=O)O)C(=O)N[C@@H](CC(C)C)C(=O)N[C@@H](CCC(N)=O)C(=O)N[C@@H](CCCCN)C(=O)N[C@@H](CC(C)C)C(=O)N[C@@H](CC(=O)O)C(=O)N[C@@H](CCCCN)C(=O)N[C@@H](Cc1c[nH]c2ccccc12)C(=O)N[C@@H](C)C(=O)N[C@@H](CO)C(=O)N[C@@H](CC(C)C)C(=O)N[C@@H](Cc1c[nH]c2ccccc12)C(=O)N[C@@H](CCC(=O)O)C(=O)N[C@@H](Cc1c[nH]c2ccccc12)C(=O)N[C@@H](Cc1ccccc1)C(N)=O [T-1249, reference compound]",–,–,–,–,–,–,0.00127,–
"CC[C@H](C)[C@H](NC(=O)[C@H](CC(C)C)NC(=O)[C@H](CO)NC(=O)[C@H](Cc1c[nH]cn1)NC(=O)[C@@H](NC(=O)[C@H](CC(C)C)NC(=O)[C@H](CO)NC(=O)[C@@H](NC(=O)[C@H](Cc1ccc(O)cc1)NC(=O)[C@H](CC(N)=O)NC(=O)[C@H](CC(N)=O)NC(=O)[C@@H](NC(=O)[C@H](CCC(=O)O)NC(=O)[C@H](CCCNC(=N)N)NC(=O)[C@H](CC(=O)O)NC(=O)[C@H](Cc1c[nH]c2ccccc12)NC(=O)[C@H](CCC(=O)O)NC(=O)[C@H](CCSC)NC(=O)[C@H](Cc1c[nH]c2ccccc12)NC(=O)[C@@H](NC(=O)[C@@H](N)CCSC)[C@@H](C)O)[C@@H](C)CC)[C@@H](C)O)[C@@H](C)CC)C(=O)N[C@@H](CCC(=O)O)C(=O)N[C@@H](CCC(=O)O)C(=O)N[C@@H](CO)C(=O)N[C@@H](CCC(N)=O)C(=O)N[C@@H](CC(N)=O)C(=O)N[C@@H](CCC(N)=O)C(=O)N[C@@H](CCC(N)=O)C(=O)N[C@@H](CCC(=O)O)C(=O)N[C@@H](CCCCN)C(=O)N[C@@H](CC(N)=O)C(=O)N[C@@H](CCC(=O)O)C(=O)N[C@@H](CCC(N)=O)C(=O)N[C@@H](CCC(=O)O)C(=O)N[C@@H](CC(C)C)C(=O)N[C@@H](CC(C)C)C(=O)O [T-651, reference compound]",–,–,–,–,–,–,–,1.65e+06
"FP-1: SEQ ID NO: 76=GR+SEQ ID NO: 05+SEQ ID NO: 52+SEQ ID NO: 37; serpin-finger, linker, T-1249 (protein) GRTEAAGAMFLEAIPMSGGGGSGGGGSGGGGTWQEWEQKITALLEQAQIQQEKNEYELQKLDKWASLWEWF",6.29e+08,1.59,227000,0.000361,700,–,–,–
"FP-3: SEQ ID NO: 78=GR+SEQ ID NO: 83+SEQ ID NO: 50+SEQ ID NO: 40; serpin-finger, linker, T-2635 (protein) GKSGTEAAGAMFLEAIPMSGGGGSGGGGSGGGGTTWEAWDRAIAEYAARIEALIRAAQEQQERNEAALREL",3.22e+10,0.031,991000,3.07e-05,200,–,–,–
